{
  "source": "the DeepSol protein solubility set",
  "data": [
    {"assay": "soluble on expression in E. coli; label from the status in PepcDB or PDB records", "values": [
      {"sequence": "MNDYAAMPSEDREVGALSLPPHSMEAEQSVLGGLMLENPAWDRIADVVSGEDFYRHEHRLIFRSIAKLINESRPADVITVQEDLQRNEELEAAGGFEYLITLAQNTPSAANIRRYAEIVRERSIMRQLAEVGTEIARSAYNPQGRDAGQLLDEAENKVFQIAESTAKSKQGFLEMPDLLKEVVQRIDMLYSRDNPDEVTGVPTGFIDLDKKTSGLQPGDLIIVAGRPSMGKTAFSINIAEHVAVEGRLPVAVFSMEMGGAQLVMRMLGSVGRLDQSVLKTGRLEDEHWGRLNEAVVKLSDAPVYIDETPGLTALELRARARRLARQFNNKLGLIVIDYLQLMAGSGRSDNRASELGEISRSLKALAKELQVPIIALSQLSRTVESRTDKRPMMSDLRESGAIEQDADLIMFMYRDEYYNQDSPMKGLAECIIGKHRNGPVGKIFLTWTGQFTKFDNAAYIPEEAKIED", "soluble on expression in E. coli": "not soluble"},
      {"sequence": "MNEKNRQLPAFTPRNRRTHPISAERKQLGVDDIVDHCMIYVDGRAIQGWFDYGSGLKRVKDFIASGHKAFMWLSLEEPSEQHMMQVADDLHIHELIVEDAVTAHQRPKVERYDDQIFMVVRSVFYRDHETVDDANEIIKTGEVQMLIGEHFIITIRHRTPMPDLTMRLDDPQEISSYGPMIIAWAWADYLVDGYLRIVNILAEEVDELEEEVFTPGSSFNIEHIYMIKREILEMRHAIDPLAPALRMLVTQHKDMIAKQLRSYLRDVLDHEMVAKDYVANFDERLSSLIDAGVAKISLQQNSDMRAIS", "soluble on expression in E. coli": "not soluble"},
      {"sequence": "MNELDGIKQFTTVVADSGDIESIRHYHPQDATTNPSLLLKAAGLSQYEHLIDDAIAWGKKNGKTQEQQVVAACDKLAVNFGAEILKIVPGRVSTEVDARLSFDKEKSIEKARHLVDLYQQQGVEKSRILIKLASTWEGIRAAEELEKEGINCNLTLLFSFAQARACAEAGVFLISPFVGRIYDWYQARKPMDPYVVEEDPGVKSVRNIYDYYKQHHYETIVMGASFRRTEQILALTGCDRLTIAPNLLKELQEKVSPVVRKLIPPSQTFPRPAPMSEAEFRWEHNQDAMAVEKLSEGIRLFAVDQRKLEDLLAAKL", "soluble on expression in E. coli": "soluble"},
      {"sequence": "MNEQPNNENITQSASRDLQIIEDDAFSYEGYQVVRGEFFAHTYEPSFTFNANKVSVNTACIKKLPQTDFVQILVNPDEKKLAVRPCQEDEKDSFRWCSATKKRSPRQITCRIFFAKVISLMEWNPSYRYKLLGKLIRSDNELLFVFDLTTPEIYVRAEKEDGKIKTSRTPTYPAEWQNQFGVPVEEHQSNLQINMFDGYAVFGISENTQPSEEAQNTSVPPKEETHYEQSTLFPADPMHLEHHHHHH", "soluble on expression in E. coli": "soluble"},
      {"sequence": "MNETTNEQEVLLLRRKLDLLLRTGKLLMESAADTNRIERNMKRVAAYLGIPEEKLHIDIRWTMLMVNVSDEKHSFSKFQKCEKHGINMEAISKISKLSWRAIEQDYSLDKYEEELEKIARQERNYTPYVVAICTGFACGGFCK", "soluble on expression in E. coli": "not soluble"},
      {"sequence": "MNFADIFSKIRRQQPSVKEAPNHWVKCQSCHALMYYKEIESCFNVCPKCNYHMRISADERIKLLSDEGSFIEYDANLEAIDPLKFVDSKSYKKRLSEGESKTGRKSSVISGECEINGLKTQLVVFDFSFMGGSLGSVEGEKIVRAIQRAITSKTSLVIVSASGGARMQESTYSLMQMSKTSAALKLLSKEKLPYISILTDPTMGGVSASFAWLGDLIIAEPEALVGFAGARVIKQTIGADLPEGFQKAEFLLEHGLIDAIVERGEQKQYLSDVLKFFSGKLEHHHHHH", "soluble on expression in E. coli": "not soluble"},
      {"sequence": "MNFAQVKDYLVDLQNRIVTGLEQVDGQSFRRDTWDRPEGGGGTSCVIEEGNVLERGGVNFSHVFGKGLPASATAARPELAGRAFEAAGVSLVLHPRNPYAPTVHMNVRFFAATKEGAEPVWWFGGGMDLTPYYGFEEDAVHFHQACKDALQPSGEEYYPRFKKWCDEYFYLKHRKEPRGIGGVFFDDLNQPDFATCFNLTRSVGDHFLAAYVPILQKRRDLPYGERERDFQAYRRGRYVEFNLVWDRGTLFGLQSGGRTESILMSLPPVVKWRYDWSPAAGSPEAKLYTDFLTGRDWLPLGLEHHHHHH", "soluble on expression in E. coli": "soluble"},
      {"sequence": "MNFPISTIRIGGWVVVAKNPDDIVAKFYFAKKKLIWEFLFGEPETNTLRLKRKIEIQWNDVSSFEESISSRDETGILKIELKKRPTFFIETNPQAGKHTQWKQLDHDFTGDHASNYRRHTLHFPPGVLQKNLEKLVTDSFWSKLYEVPFPVHESRYFDSGFENNSSRNSHSHTVGFNVNNGPQHHFSQGIGGVGVGEGNFSMANGGWQRNSYSPVNSLNYNTANEFFGMQATPPSSQVVNEHYNTQNDFTGSQFGYHMNQDEIQKILESQAYAVPDTQTKLMSSAMNNVPKYPQAGSCLESMLFWYEHRRRFQQ", "soluble on expression in E. coli": "soluble"},
      {"sequence": "MNGFARRTEQKKQAIKQAVLELLQKIRDPREVTIQEIAKQAHVSPVTIYNYFGSKENLIRETLLDDVVRQVDEYEAFLKQAGSFEEKVKHTIFQEVKLFKEGWTDVMLRWMQEDEEFRRSIELLNETRVLPLVVDMIREAQKKGEVDPRLSIEALLLYLNGWRELSEKIPASLYNERLVEDMVRLFFYGIKGETR", "soluble on expression in E. coli": "not soluble"},
      {"sequence": "MNGMCWIASYPKAGGHWLRCMLTSYVTGEPVETWPGIQAGVPHLEGLLRDGEAPSADPDEQVLLATHFTADRPVLRFYRESTAKVVCLIRNPRDAMLSLMRMKGIPPEDVEACRKIAETFIADEGFSSVRIWAGEGSWPENIRSWTDSVHESFPNAAVLAVRYEDLRKDPEGELWKVVDFLELGGRDGVADAVANCTLERMREMEERSKLLGLETTGLMTRGGKQLPFVGKGGQRKSLKFMGDDIEKAYADLLHGETDFAHYARLYGYAE", "soluble on expression in E. coli": "soluble"},
      {"sequence": "MNGPEVLRFAANLYRVPVEGGYFLVDAGLPWEARRLLSLLQEPPRLLFLTHHHLDHAGGARALWERFRVPVLAHPQEWAYLTKRKPRPPLPLPLLGKGARQLGADDPGGGPRPRGGRGWRSSASGWSTSRGTPLGQVGLFREGVLLAGNALRGRGLPPRFINEDHALARRTVRKILELGVKRVYLGHGGPLSGEEVAAIARRLGV", "soluble on expression in E. coli": "soluble"},
      {"sequence": "MNGWNFQELKETPSQTGGPYVHIGLLPKQANIEVFEHNLDNNLVQDNTQGQRIRLEGQVFDGLSLPLRDVLIEIWQADTNGVYPSQADTQGKQVDPNFLGWGRTGADFGTGFWSFNTIKPGAVPGRKGSTQAPHISLIIFARGINIGLHTRVYFDDEAEANAKDPVLNSIEWATRRQTLVAKREERDGEVVYRFDIRIQGENETVFFDI", "soluble on expression in E. coli": "soluble"},
      {"sequence": "MNHPAHHGPTVTPKRRHPDSTGAAPVGIVIATRNRRASLAVTVRNLLALPERPDVLVVDNASTDDTRAMLARDFPQVRVLPLPYNRGALARTHGVRALDTPYVAFSDDDSWWAPGALGAAARHFDDHPRLGLLSARTLVGPGDAADPLNDLLADSPLGTATDLPGTQVLGFLGCAAVARRTAYLDAGGYHPLLFFGGEETLLAYDLAARGWGVTHCPDVIAHHHPHPRPRTGRPAVVRRNALLTAWLRRPLPHALARTRALAADARRDPHARHALRETLTRLPAALRARRPLPPHVERAARLLDGADGPDGPGGAVSLEHHHHHH", "soluble on expression in E. coli": "soluble"},
      {"sequence": "MNHRDKQIDSGSGSGENRRTYDCDICKRGFTNPQALGGHNNIHRRERERYPSSSSSSHSFPFSLPLPSQSPSSSTNFTNPPPYFPTIESYLHQGSQPPINPSHNTQYFGSSSSSRGGGRFAQGASHDLNLSLGLGSMNEDDDTHRSPPETGGSQPQDGDLDLDLRLGGHRHH", "soluble on expression in E. coli": "soluble"},
      {"sequence": "MNINRFVLAAPGSGSGKTTVAALLCLALRARGLSVQPFKLGPDYLDPTHLTRAAGRETRNLDSFLLAPERLQTLFARAAAQAEVCVIEGVMGLYDGRDPGSDEHSTAALARLLGARVVLVIDAGGMARTVAAVAAGLRDFGEGVNVAGVILNRVGSVRHAELCAEALTQVGLACLGFLLQDDALRLPSRHLGLLSAQQASWDEAAALAAARYLDLDALLNVTRAPDLSSSSSMSPPPSTRIAYAFDSAFHFYYPDALDELRSCGAELVPFSPLEDAGVPEDVGGLLLGGGYPEAHAAELAANERMRRSVRAFAASGRPVVGECGGLMYLSETLEDENGVTHEMCGVVPYRTRMARRLSLGYRDALSLADSPLLPAGTAIRGHEFHFSTLTHEPTHPAYRWRTHDGQEVAEGYARGNVLASYLHLHYGGFPAVAARLVERCQLEHHHHHH", "soluble on expression in E. coli": "not soluble"},
      {"sequence": "MNIRCARVDDLMSMQNANLMCLPENYQMKYYFYHALSWPQLSYIAEDHKGNVVGYVLAKMEEDPGEEPHGHITSLAVKRSYRRLGLANKMMDQTARAMVETYNAKYVSLHVRVSNRAALNLYKNTLKFEIVDTEPKYYADGEDAYAMRRDLAKWAEERNIEPADREAYTTAKTTDDKKKNRS", "soluble on expression in E. coli": "not soluble"},
      {"sequence": "MNIRQAKTSDAAAIAPLFNQYREFYRQASDLQGAEAFLKARLENHESVILIAEENGEFIGFTQLYPTFSSVSMKRIYILNDLFVVPHARTKGAGGRLLSAAKDYAGQNGAKCLTLQTEHHNRKARSLYEQNGYEEDTGFVHYCLNVPAK", "soluble on expression in E. coli": "soluble"},
      {"sequence": "MNISPKAIKVRNIWIGGTEPCICAPVVGEDDRKVLREAEEVCRKQPDLLEWRADFFRAIDDQERVLATANGLRNIAGEIPILFTIRSEREGGQPIPLNEAEVRRLIEAICRSGAIDLVDYELAYGERIADVRRMTEECSVWLVVSRHYFDGTPRKETLLADMRQAERYGADIAKVAVMPKSPEDVLVLLQATEEARRELAIPLITMAMGGLGAITRLAGWLFGSAVTFAVGNQSSAPGQIPIDDVRTVLSILQTYSR", "soluble on expression in E. coli": "soluble"},
      {"sequence": "MNITQILSQELSATAAQITAAVELLDDGATVPFIARYRKEATGGLDDTQLRRLAERLQYLRELEERKAVVLKSIEEQGKLSDDLRAQIEAADNKTALEDLYLPYKPKRRTKAQIAREHGLQPLADVLLAEQSQDVEAAAQGYLNENVPDAKAALDGARAILMEQFAEDAELIGTLRDKLWNEAEIHAQVVEGKETEGEKFSDYFDHREPVRTMPSHRALAVLRGRNEGVLNIALKYQPDDTPITRQSEYEQIIACRFKVSDGHKWLRDTVRLTWRAKIFLSLELEALGRLKEAADTDAITVFARNLKDLLLVAPAGRLTTLGLDPGYRNGVKCAVVDDTGKLLDTVIVYLHQENNMLATLSRLIKQHGVKLIAIGNGTASRETDKIAGELVRGMPEMGLHKIVVSEAGASIYSASELAAREFPDLDVSLRGAVSIARRLQDPLAELVKIDPKSIGVGQYQHDVNQNQLAKSLDAVVEDCVNAVGVDVNTASAPLLARISGLNQTLAQNIVAYRDENGAFDSRKKLLKVPRLGEKTFEQAAGFLRINGGKEPLDASAVHPEAYPVVAKMLAQQGISAAELIGNRERVKQIKASDFTDERFGLPTILDILSELEKPGRDPRGEFQTASFAEGIHEISDLQVGMILEGVVSNVANFGAFVDIGVHQDGLVHISALSNKFVQDPREVVKAGDVVKVKVLEVDAARKRIALTMRLDDEPGGAKHKMPSENRSRERTAGRKPQRNDRAPANSAMADAFAKLKR", "soluble on expression in E. coli": "soluble"},
      {"sequence": "MNIVSTSVALLLAAASAEVENRKSSNATEVNMTETAQIENHPYVGMWVTGDGHIRQELLPNGRYDEARGKRKSAYQGRYEVKGNHIDYWDDTGFTADGEFVDDVLHHGGMIFYRQK", "soluble on expression in E. coli": "not soluble"},
      {"sequence": "MNIWGPHIVQARRAVAIFCRGLLVLMPALSLLGLTAEAEPRSADDRQRIAAVTAPATGFTVAEPFEQLPGGAATVSGDLGRDAFSRPSANMSFERELDFHLGQALFDKLWVASPSSTKASDGLGPLYNARSCQACHIRDGRGQVSGGPGLVLRIGRVRGDGVLPDPLFGLQIQDSAVPGLRPEARIAVSQAETEVTLNGGEVAVLRKPRYRLDAAEGTLHAESTLSPRLAPQMIGLGLLEAIPEAEILARADPDDRDGDGISGRPNRVHDPETGQEALGRFGWKAGAASVLDQTAAAFASDIGISSPLRPAPWGDCTELQVECRAALHGDGDPRGAEIDGPALALTAFYSRNLAVPARRDVDDPDVLRGKRVFYGIGCPACHVPKHVTAQLSDQPEQSFQLIWPYTDLLLHDMGAGLADELPQGLASGREWRTAPLWGIGLTEQVSGQARFLHDGRARTLLEAVLWHGGEAAAQRDRVIALAPEDRAALIRFLESL", "soluble on expression in E. coli": "not soluble"}
    ]}
  ]
}
